Assay results: publication PMC10803776, “Structure of the M. tuberculosis DnaK−GrpE complex reveals how key DnaK roles are controlled” (Nature Communications, 2024)
Ends that are not written are not given here.

Key:
[1] = target: T1, Mycobacterium tuberculosis DnaK, wild type, full length (Mycobacterium tuberculosis, UniProt P9WMJ9 1-625); test: fluorescence polarisation; direct binding of F-NR to DnaK in the presence of ADP or without nucleotide; conditions: both partners purified
T1 construct: DnaK (Hsp70 chaperone) of Mycobacterium tuberculosis, full length; also called Mtb DnaK; WT DnaK

[2] = target: T2, Mycobacterium tuberculosis DnaK, full length, wild type (Mycobacterium tuberculosis, UniProt P9WMJ9 1-625); test: ITC; conditions: both partners purified
T2 construct: DnaK (Hsp70 chaperone) of Mycobacterium tuberculosis, full length; also called Mtb DnaK; WT DnaK

[3] = target: T3, Mycobacterium tuberculosis DnaK Mut-1 (Y106A, L107A) (Mycobacterium tuberculosis, UniProt P9WMJ9 1-625, Y106A | L107A); test: ITC; conditions: both partners purified
T3 construct: DnaK of Mycobacterium tuberculosis, full length, with two alanine substitutions in NBD subdomain IA

[4] = target: T1, Mycobacterium tuberculosis DnaK, wild …; test: SEC-MALS; conditions: both partners purified
[5] = target: the molecule itself; test: cryo-EM structure; DnaK 2 μM, DnaJ2 4 μM, GrpE 4 μM, telaprevir 200 μM in 25 mM Tris pH 8.0, 40 mM NaCl, 10 mM MgCl2; no nucleotide; 3.7 Å map

B1: N-terminal fluorescein-labeled NR peptide (NRLLLTG) (peptide)
peptide: fluorescein-NRLLLTG
notes: model peptide substrate of DnaK; also called F-NR; fluorescently tagged NR; source: bought: PEPTIDE 2.0 (purity >95%)
**Q.** Does B1 bind [1]?
**A.** binds

B2: Mycobacterium tuberculosis GrpE, full length, wild type (natural protein)
chain: MTDGNQKPDGNSGEQVTVTDKRRIDPETGEVRHVPPGDMPGGTAAADAAHTEDKVAELTADLQRVQADFANYRKRALRDQQAAADRAKASVVSQLLGVLDDLERARKHGDLESGPLKSVADKLDSALTGLGLVAFGAEGEDFDPVLHEAVQHEGDGGQGSKPVIGTVMRQGYQLGEQVLRHALVGVVDTVVVDAAELESVDDGTAVADTAENDQADQGNSADTSGEQAESEPSGS
notes: GrpE (nucleotide exchange factor) of Mycobacterium tuberculosis, full length; also called Mtb GrpE; WT GrpE
**Q.** Which results are given for B2?
**A.** Kd [2]: 240 nM; stoichiometry N [2]: 0.69; Kd [3]: 1070 nM; stoichiometry N [3]: 0.13

B3: Mycobacterium tuberculosis GrpE, wild type, full length (natural protein)
chain: MTDGNQKPDGNSGEQVTVTDKRRIDPETGEVRHVPPGDMPGGTAAADAAHTEDKVAELTADLQRVQADFANYRKRALRDQQAAADRAKASVVSQLLGVLDDLERARKHGDLESGPLKSVADKLDSALTGLGLVAFGAEGEDFDPVLHEAVQHEGDGGQGSKPVIGTVMRQGYQLGEQVLRHALVGVVDTVVVDAAELESVDDGTAVADTAENDQADQGNSADTSGEQAESEPSGS
notes: GrpE (nucleotide exchange factor) of Mycobacterium tuberculosis, full length, 235 residues (C-terminal residues printed as aa 188-235); also called Mtb GrpE; WT GrpE
**Q.** What does the source list for B3?
**A.** stoichiometry N [4]: 2 GrpE per DnaK; stoichiometry N [5]: 2
